Patent publication US20200377594A1 (MorphoSys, published 2020)

B1: SP34 (m/h chimeric) IgG (antibody, V domains shown)
VH: EVQLVESGGGLVQPKGSLKLSCAASGFTFNTYAMNWVRQAPGKGLEWVARIRSKYNNYATYYADSVKDRFTISRDDSQSILYLQMNNLKTEDTAMYYCVRHGNFGNSYVSWFAYWGQGTLVTVSS
VL: QAVVTQESALTTSPGETVTLTCRSSTGAVTTSNYANWVQEKPDHLFTGLIGGTNKRAPGVPARFSGSLIGDKAALTITGAQTEDEAIYFCALWYSNLWVFGGGTKLTVLG
notes: Murine SP34 variable domains tested as mouse/human chimeric IgG; also called SP34 IgG (m/h chimera)
B2: mAb#München (antibody, human IgG1, lambda, V domains shown)
VH: EVQLVESGGGLVKPGGSLRLSCAASGFTFNTYAMNWVRQAPGKGLEWVGRIRSKYNNYATYYADSVKDRFTISRDDSKNTLYLQMNSLKTEDTAVYYCTTHGNFGNSYVSWFAYWGQGTLVTVSS
VL: QTVVTQEPSLTVSPGGTVTLTCRSSTGAVTTSNYANWVQQKPGQAPRGLIGGTKFLAPGTPARFSGSLLGGKAALTLLGAQPEDEAEYYCALWYSNLWVFGGGTKLTVLG
notes: also called Munchen
B3: mAb#Bremen (antibody, human IgG1, lambda, V domains shown)
VH: EVQLVESGGGLVKPGGSLRLSCAASGFTFNTYAMNWVRQAPGKGLEWVGRIRSKYNNYATYYADSVKDRFTISRDDSKNTLYLQMNSLKTEDTAVYYCTTHGNFGNSYVSWFAYWGQGTLVTVSS
VL: QTVVTQEPSLTVSPGGTVTLTCRSSTGAVTTSNYANWVQQKPGQAPRGLIGGTKFLAPGTPARFSGSLLGGKAALTLSGVQPEDEAEYYCALWYSNLWVFGGGTKLTVLG
B4: mAb#Nürnberg (antibody, human IgG1, lambda)
heavy: not shown
light: QTVVTQEPSLTVSPGGTVTLTCRSSTGAVTTSNYANWVQQKPGQAPRGLIGGTNKRAPGTPARFSGSLLGGKAALTLSGVQPEDEAEYYCALWYSNLWVFGGGTKLTVLGQPKAAPSVTLFPPSSEELQANKATLVCLISDFYPGAVTVAWKADSSPVKAGVETTTPSKQSNNKYAASSYLSLTPEQWKSHRSYSCQVTHEGSTVEKTVAPTECS
B5: mAb#Freiburg (antibody, human IgG1, lambda, V domains shown)
VH: EVQLVESGGGLVKPGGSLRLSCAASGFTFNTYAMNWVRQAPGKGLEWVGRIRSKYNNYATYYADSVKDRFTISRDDSKNTLYLQMNSLKTEDTAVYYCTTHGNFGNSYVSWFAYWGQGTLVTVSS
VL: QTVVTQEPSLTVSPGGTVTLTCRSSTGAVTTSNYANWVQQKPGQAPRGLIGGTNKRAPGTPARFSGSLLGGKAALTLLGAQPEDEAEYYCALWYSNLWVFGGGTKLTVLG
B6: mAb#Köln (antibody, human IgG1, lambda)
heavy: not shown
light: ELVVTQEPSLTVSPGGTVTLTCRSSTGAVTTSNYANWVQQKPGQAPRGLIGGTNKRAPGTPARFSGSLLGGKAALTLSGVQPEDEAEYYCALWYSNLWVFGGGTKLTVLGQPKAAPSVTLFPPSSEELQANKATLVCLISDFYPGAVTVAWKADSSPVKAGVETTTPSKQSNNKYAASSYLSLTPEQWKSHRSYSCQVTHEGSTVEKTVAPTECS
B7: mAb#Mainz (antibody, human IgG1, lambda, V domains shown)
VH: QVQLVESGGGLVKPGGSLRLSCAASGFTFNTYAMNWIRQAPGKGLEWVSRIRSKYNNYATYYADSVKDRFTISRDNAKNSLYLQMNSLRAEDTAVYYCVRHGNFGNSYVSWFAYWGQGTLVTVSS
VL: QAVVTQEPSLTVSPGGTVTLTCRSSTGAVTTSNYANWVQQKPGQAPRGLIGGTNKRAPWTPARFSGSLLGGKAALTITGAQAEDEADYYCALWYSNLWVFGGGTKLTVLG
B8: mAb#Gladbach (antibody, human IgG1, lambda, V domains shown)
VH: QVQLVESGGGLVKPGGSLRLSCAASGFTFNTYAMNWIRQAPGKGLEWVSRIRSKYNNYATYYADSVKDRFTISRDNAKNSLYLQMNSLRAEDTAVYYCVRHGNFGNSYVSWFAYWGQGTLVTVSS
VL: QTVVTQEPSLTVSPGGTVTLTCRSSTGAVTTSNYANWVQQKPGQAPRGLIGGTKFLAPGTPARFSGSLLGGKAALTLSGVQPEDEAEYYCALWYSNLWVFGGGTKLTVLG

Key:
[1] = molecular target: T1, recombinant cynomolgus CD3e (22-49)-Fc2(K105-K330) (cynomolgus monkey); assay: ELISA, 1 nM antigen coated, IgG titrated, anti-human F(ab')2-AP detection
T1 construct: also called cyCD3e(22-49)_Fc2(K105-K330); cyCD3 epsilon 22-49/Fc

[2] = molecular target: T2, recombinant human CD3e (22-49)-Fc2 (K105-K330) (human); assay: ELISA, 5 nM antigen coated, IgG titrated, anti-human F(ab')2-AP detection
T2 construct: also called hCD3e(22-49)_Fc2(K105-K330); hCD3 epsilon 22-49/Fc

[3] = molecular target: Human CD3e (22-118) Flag_chLys_avi (human); assay: SPR (Biacore T200), IgG captured on MabSelect SuRe, hCD3e analyte 4.1-999 nM, 1:1 fit
Sequence of Human CD3e (22-118) Flag_chLys_avi (human) (chain, as listed by the source limits assumed): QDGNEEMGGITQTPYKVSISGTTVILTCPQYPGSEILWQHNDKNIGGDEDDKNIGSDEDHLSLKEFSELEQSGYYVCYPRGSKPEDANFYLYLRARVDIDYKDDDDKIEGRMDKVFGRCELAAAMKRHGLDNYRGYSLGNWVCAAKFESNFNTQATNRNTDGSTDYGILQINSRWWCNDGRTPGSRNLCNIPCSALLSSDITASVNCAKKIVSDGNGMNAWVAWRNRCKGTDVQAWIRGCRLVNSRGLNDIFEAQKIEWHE

[4] = molecular target: T3, human CD3 expressed on cells (Jurkat cells; human lymphocytes/PBMCs) (human, UniProt P07766 23-207); assay: flow cytometry on CD3 positive Jurkat cells, IgG titrated, anti-human F(ab')2-PE detection
T3 construct: on the cells it stands in the CD3/TCR complex; also called human CD3 epsilon; CD3 positive Jurkat cells
T3 sequence (P07766 23-207): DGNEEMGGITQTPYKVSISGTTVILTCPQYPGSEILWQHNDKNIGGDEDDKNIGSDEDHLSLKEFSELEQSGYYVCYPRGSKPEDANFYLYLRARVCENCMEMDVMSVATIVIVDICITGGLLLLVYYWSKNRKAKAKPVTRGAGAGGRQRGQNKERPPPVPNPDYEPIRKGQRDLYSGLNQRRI

[5] = molecular target: T4, cynomolgus CD3 expressed on cynomolgus lymphocytes/PBMCs (cynomolgus monkey, UniProt Q95LI5 22-198); assay: flow cytometry on cynomolgus PBMCs (lymphocyte gate), detection with anti-human F(ab')2-PE
T4 construct: also called cynomolgus CD3 epsilon
T4 sequence (Q95LI5 22-198): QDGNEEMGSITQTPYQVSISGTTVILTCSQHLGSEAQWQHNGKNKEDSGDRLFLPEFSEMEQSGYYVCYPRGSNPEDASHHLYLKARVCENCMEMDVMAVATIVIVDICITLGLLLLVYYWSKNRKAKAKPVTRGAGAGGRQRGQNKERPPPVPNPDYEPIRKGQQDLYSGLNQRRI

[6] = molecular target: Human CD3e (22-118) Flag_chLys_avi (human); assay: SPR (Biacore T200), IgG captured on MabSelect SuRe, hCD3e analyte 4.1-999 nM, 1:1 fit; comment: slightly heterogeneous binding
[7] = molecular target: Human CD3e (22-118) Flag_chLys_avi (human); assay: SPR (Biacore T200), IgG captured on MabSelect SuRe, hCD3e analyte 4.1-999 nM, 1:1 fit; comment: heterogeneous binding
[8] = molecular target: Human CD3e (22-118) Flag_chLys_avi (human); assay: SPR (Biacore T200), IgG captured on MabSelect SuRe, hCD3e analyte, 1:1 fit; comment: only conc. 37-333 nM used for evaluation
[9] = molecular target: Human CD3e (22-118) Flag_chLys_avi (human); assay: SPR (Biacore T200), IgG captured on MabSelect SuRe, hCD3e analyte, 1:1 fit; comment: weak binding signals, only 333 nM & 999 nM evaluated

Binder	EC50 [1]	EC50 [2]	EC50 [4]	EC50 (read off the curve) [5]	Kd [6]	koff [6]	kon [6]	other results
B1	0.15 nM	0.39 nM	1.4 nM	~3 nM				Kd [3]: 1.7 nM; koff [3]: 0.000835 s⁻¹; kon [3]: 487000 M⁻¹ s⁻¹
B2	1.43 nM	0.6 nM	6.6 nM	~20 nM	78 nM	0.00658 s⁻¹	84000 M⁻¹ s⁻¹	
B3	0.8 nM	1.1 nM	6.3 nM	~20 nM				Kd [7]: 74 nM; koff [7]: 0.00479 s⁻¹; kon [7]: 65000 M⁻¹ s⁻¹
B4	0.21 nM	0.34 nM	1 nM					Kd [8]: 48 nM; koff [8]: 0.00387 s⁻¹; kon [8]: 80000 M⁻¹ s⁻¹
B5	1.26 nM	0.91 nM	10.7 nM	~10 nM				Kd [7]: 130 nM; koff [7]: 0.00467 s⁻¹; kon [7]: 35200 M⁻¹ s⁻¹
B6	0.2 nM	0.31 nM	1.8 nM		51 nM	0.00386 s⁻¹	76200 M⁻¹ s⁻¹	
B7	1.53 nM	1.21 nM	9.4 nM					Kd [9]: 600 nM; koff [9]: 0.00847 s⁻¹; kon [9]: 14200 M⁻¹ s⁻¹
B8	0.21 nM	0.38 nM	1.4 nM	~6 nM	54 nM	0.00385 s⁻¹	71800 M⁻¹ s⁻¹	
